Measurements published in patent US20180037631A1 (Bristol-Myers Squibb, published 2018).
Positions count from the first letter of the chain named.

B1: E85-GS10-I1 pegylated (designed binder)
E/I tandem 10Fn3 chain: MGVSDVPRDLEVVAATPTSLLISWTQGSTHYQYYRITYGETGGNSPVQEFTVPGMVYTATISGLKPGVDYTITVYAVTDYFDRSTHEYKYRTTPISINYRTEIDKGSGSGSGSGSGSGSGSGSGSVSDVPRDLEVVAATPTSLLISWSARLKVARYYRITYGETGGNSPVQEFTVPKNVYTATISGLKPGVDYTITVYAVTRFRDYQPISINYRTEIDKPCQHHHHHH
modifications: Cys of the C-terminal Cys tail conjugated to 40 kDa branched PEG
B2: E105-GS10-I1 pegylated (designed binder)
E/I tandem 10Fn3 chain: MGVSDVPRDLEVVAATPTSLLISWDAPTSRYQYYRITYGETGGNSPVQEFTVPGGLSTATISGLKPGVDYTITVYAVTDYKPHADGPHTYHESPISINYRTEIDKGSGSGSGSGSGSGSGSGSGSVSDVPRDLEVVAATPTSLLISWSARLKVARYYRITYGETGGNSPVQEFTVPKNVYTATISGLKPGVDYTITVYAVTRFRDYQPISINYRTEIDKPCQHHHHHH
modifications: Cys of the C-terminal Cys tail conjugated to 40 kDa branched PEG
B3: E105-GS10-I1 pegylated (designed binder)
chain: B2 E/I tandem 10Fn3 chain
modifications: chain 1 pos 221: Cys carrying a maleimide-linked 40 kDa branched PEG, written C
notes: lower row of the two named E105-GS10-I1 pegylated
B4: E96-GS10-I1 pegylated (designed binder)
E/I tandem 10Fn3 chain: MGVSDVPRDLEVVAATPTSLLISWASNRGTYQYYRITYGETGGNSPVQEFTVPGGVSTATISGLKPGVDYTITVYAVTDAFNPTTHEYNYFTTPISINYRTEIDKGSGSGSGSGSGSGSGSGSGSVSDVPRDLEVVAATPTSLLISWSARLKVARYYRITYGETGGNSPVQEFTVPKNVYTATISGLKPGVDYTITVYAVTRFRDYQPISINYRTEIDKPCQHHHHHH
modifications: Cys of the C-terminal Cys tail conjugated to 40 kDa branched PEG
B5: E90-GS10-I1 pegylated (designed binder)
E/I tandem 10Fn3 chain: MGVSDVPRDLEVVAATPTSLLISWYWEGLPYQYYRITYGETGGNSPVQEFTVPRDVNTATISGLKPGVDYTITVYAVTDWYNPDTHEYIYHTIPISINYRTEIDKGSGSGSGSGSGSGSGSGSGSVSDVPRDLEVVAATPTSLLISWSARLKVARYYRITYGETGGNSPVQEFTVPKNVYTATISGLKPGVDYTITVYAVTRFRDYQPISINYRTEIDKPCQHHHHHH
modifications: Cys of the C-terminal Cys tail conjugated to 40 kDa branched PEG
B6: E5-GS10-I1 pegylated (designed binder)
E/I tandem 10Fn3 chain: B2 E/I tandem 10Fn3 chain with D25W, T28V, S29D, G54R, G55D, L56V, S57Y
modifications: Cys of the C-terminal Cys tail conjugated to 40 kDa branched PEG
B7: I1-GS10-E112 pegylated (designed binder)
I/E tandem 10Fn3 chain: MGVSDVPRDLEVVAATPTSLLISWSARLKVARYYRITYGETGGNSPVQEFTVPKNVYTATISGLKPGVDYTITVYAVTRFRDYQPISINYRTEIDKGSGSGSGSGSGSGSGSGSGSVSDVPRDLEVVAATPTSLLISWDAGAVTYQYYRITYGETGGNSPVQEFTVPGGVRTATISGLKPGVDYTITVYAVTDYKPHADGPHTYHEYPISINYRTEIDKPCQHHHHHH
modifications: Cys of the C-terminal Cys tail conjugated to 40 kDa branched PEG
B8: E92 (designed binder)
10Fn3 domain: MGVSDVPRDLEVVAATPTSLLISWQAANHSYQYYRITYGETGGNSPVQEFTVPGGVRTATISGLKPGVDYTITVYAVTDFFNPVTHEYKYRTIPISINYRTEIDKPSQ
B9: E93 (designed binder)
10Fn3 domain: MGVSDVPRDLEVVAATPTSLLISWDSGRGSYQYYRITYGETGGNSPVQEFTVPGGVRTATISGLKPGVDYTITVYAVTDYKPHADGPHTYHEYPISINYRTEIDKPSQ
B10: E98 (designed binder)
10Fn3 domain: B9 10Fn3 domain with S26A, G27P, R28T, G29S, S30R, Y80H
B11: E97 (designed binder)
10Fn3 domain: B9 10Fn3 domain with D25L, S26P, R28K, G29L, S30R, G54H, G55D, V56L, Y93S
B12: E94 (designed binder)
10Fn3 domain: B9 10Fn3 domain with D25N, S26N, R28G, G29R, S30N, G54Y, G55D, R57Y
B13: E91 (designed binder)
10Fn3 domain: MGVSDVPRDLEVVAATPTSLLISWSAPWRTYQYYRITYGETGGNSPVQEFTVPYDVYTATISGLKPGVDYTITVYAVTDYLNPNTLEYTYQRIPISINYRTEIDKPSQ
B14: E89 (designed binder)
10Fn3 domain: MGVSDVPRDLEVVAATPTSLLISWDDPAANRQYYRITYGETGGNSPVQEFTVPYDLRTATISGLKPGVDYTITVYAVTDYYNPATHQYKYSQSPISINYRTEIDKPSQ
B15: E95 (designed binder)
10Fn3 domain: MGVSDVPRDLEVVAATPTSLLISWVVPQGMYQYYRITYGETGGNSPVQEFTVPGGVSTATISGLKPGVDYTITVYAVTDYFNPATHEYNYHSIPISINYRTEIDKPSQ
B16: E96 (designed binder)
10Fn3 domain: B15 10Fn3 domain with V25A, V26S, P27N, Q28R, M30T, Y80A, A84T, H91F, S92T, I93T
B17: E90 (designed binder)
10Fn3 domain: MGVSDVPRDLEVVAATPTSLLISWYWEGLPYQYYRITYGETGGNSPVQEFTVPRDVNTATISGLKPGVDYTITVYAVTDWYNPDTHEYIYHTIPISINYRTEIDKPSQ

Biological target: T1, EGFR on the surface of human tumour cells (A431, H292) (human, UniProt P00533 25-1210)
Assay: cell-based or functional assay

IC50, EGF-induced EGFR phosphorylation, A431 cells, In Cell Western | IC50, EGF-induced ERK phosphorylation, A431 cells, In Cell Western | IC50, EGF-stimulated EGFR phosphorylation, H292 cells, ELISA | Binder
15 nM | 15 nM | 4 nM | B1
56 nM | 61 nM | 15 nM | B2
61 nM | 49 nM | 16 nM | B3
61 nM | 54 nM | 10 nM | B4
65 nM | 63 nM | 10 nM | B5

Biological target: IGF-IR on human tumour cells (H292, MCF-7, RH41) (human, UniProt P08069 31-1367)
Assay: cell-based or functional assay

IC50, IGF1-stimulated IGFR phosphorylation, H292 cells, ELISA | Binder
0.3 nM | B1
0.5 nM | B2
0.5 nM | B3
0.4 nM | B6
0.3 nM | B7
0.4 nM | B4
0.4 nM | B5

Biological target: T2, Recombinant human EGFR-Fc (aa 1-645 of the extracellular domain of human EGFR fused to human Fc) (human, UniProt P00533 25-645)
T2 construct: range 1-645; bought from R&D Systems; also called EGFR645-Fc; EGFR-Fc (HER-1); not shown: human Fc
Assay: not given

Kd | Binder
4.76 nM | B1
9.28 nM | B2
7.65 nM | B3
24.2 nM | B4
13.5 nM | B5

Biological target: T1, EGFR on the surface of human tumour …
Assay: cell-based or functional assay
Remark: another data set of the same source

% inhibition of EGFR phosphorylation at 100 nM binder, cell-based assay | Binder
88.5% | B8
76.9% | B9
75.8% | B10
89.3% | B11
78.7% | B12
84.7% | B13
82.6% | B14
98% | B15
91.7% | B16
81.3% | B17

Biological target: T1, EGFR on the surface of human tumour …
Assay: not given

IC50 | Binder
65.9 nM | B1
75 nM | B2
93.8 nM | B3
43.8 nM | B4
69.1 nM | B5

Biological target: T3, IGF1R-Fc (extracellular domain of human IGF1R aa 1-932 fused to hinge and constant regions of human IgG1) (human, UniProt P08069 31-932)
T3 construct: range 1-932; made in house by transient transfection, purified on Protein A; also called IGF-IR-Fc; not shown: hinge and constant regions of human IgG1
Assay: not given

Kd | Binder
0.75 nM | B1
1.35 nM | B2
1.19 nM | B3
1.16 nM | B6
0.96 nM | B4
1.5 nM | B5
